Data: patent US20220119534A1 (DRAGONFLY THERAPEUTICS, published 2022)
Where “and” joins values, the source holds several entries; their conditions need not be identical. Equal values may be shown once.

B1: human CLEC12A expressed on cells (receptor)
chain: MSEEVTYADLQFQNSSEMEKIPEIGKFGEKAPPAPSHVWRPAALFLTLLCLLLLIGLGVLASMFHVTLKIEMKKMNKLQNISEELQRNISLQLMSNMNISNKIRNLSTTLQTIATKLCRELYSKEQEHKCKPCPRRWIWHKDSCYFLSDDVQTWQESKMACAAQNASLLKINNKNALEFIKSQSRSYDYWLGLSPEEDSTRGMRVDNIINSSAWVIRNAPDLNNMYCGYINRLYVQYYHCTYKKRMICEKMANPVQLGSTYFREA
notes: Transduced isogenic cells or endogenous expression on AML cells; also called RMA-hCLEC12A; Ba/F3-hCLEC12A

Columns and labels:
AB0300 = target: T1, AB0300 (Homo sapiens (Human), UniProt P0DOX5 2-448 = IgG part; P0DOX7 1-214, L234A; L235A; P329G); test: flow cytometry on Ba/F3-hCLEC12A cells, fold over background
T1 construct: AB0237 with LALAPG in both Fc chains
Experimental: The cells were then incubated with a fluorophore conjugated anti-human IgG secondary antibody and were analyzed by flow cytometry. The mean fluorescence intensity (MFI) values were normalized to secondary antibody only controls to obtain fold over background (FOB) values.
100,000 cells were seeded per well into a 96-well plate for FACS staining. Cells were washed with PBS. Cells were incubated in a 1:2000 dilution of live/dead dye in PBS for 15 minutes, then washed with FACS buffer. TriNKETs or mAbs were diluted into FACS buffer, and 50 μl containing diluted TriNKET or mAb was added to cells. Cells were incubated on ice for 20 minutes. After the incubation, cells were washed with FACS buffer. Anti-human IgG-Fc secondary antibody was diluted into FACS buffer, and 50 μl was added per well for detection of the bound TriNKETs or mAbs. Cells were incubated for 20 minutes on ice, then washed with FACS buffer. 50 μl of fixation buffer was added to each well, and cells were incubated for 10 minutes at room temperature. Cells were washed with FACS buffer and resuspended in FACS buffer for analysis with BD FACS Celesta SN #H66034400085, or BD FACS Celesta SN #H66034400160. Cells of interest were identified using FSC vs. SSC plot, and an appropriately shaped gate was drawn around the cells. Within the gated cells, doublet cells were removed by viewing FSC-H vs FSC-A plot. Within the single cell population, live cells were gated. Within the live gate, the mean fluorescence intensity (MFI) of each sample and the secondary-only control was calculated. Fold-over-background (FOB) was calculated as the ratio of test article MFI over secondary-only background MFI. Data were fit to a four-parameter non-linear regression curve using GraphPad Prism 7.0.

[1] = target: T2, human NKG2D on effector cells (human, UniProt P26718 1-216); test: cell-based or functional assay
T2 sequence (looked up): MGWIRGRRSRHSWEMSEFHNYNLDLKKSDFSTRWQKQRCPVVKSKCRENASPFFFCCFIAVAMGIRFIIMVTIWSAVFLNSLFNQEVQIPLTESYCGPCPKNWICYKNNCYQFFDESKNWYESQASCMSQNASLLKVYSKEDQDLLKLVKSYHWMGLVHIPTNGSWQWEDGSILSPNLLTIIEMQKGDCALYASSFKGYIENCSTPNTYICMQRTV

[2] = target: T3, Human CLEC12A expressed on cells (Ba/F3-hCLEC12A, PL21, HL60) (human, UniProt Q5QGZ9 1-265); test: cell-based or functional assay
T3 sequence: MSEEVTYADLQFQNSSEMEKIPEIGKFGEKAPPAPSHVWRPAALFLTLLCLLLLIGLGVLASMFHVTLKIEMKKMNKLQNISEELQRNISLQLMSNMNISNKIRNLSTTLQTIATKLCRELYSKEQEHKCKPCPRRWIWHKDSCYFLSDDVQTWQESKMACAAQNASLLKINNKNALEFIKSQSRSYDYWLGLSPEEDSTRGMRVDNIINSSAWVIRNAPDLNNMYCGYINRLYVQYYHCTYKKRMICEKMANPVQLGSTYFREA

[3] = target: T3, Human CLEC12A expressed on cells …; test: cell-based or functional assay; remark: listed apart in the source
[4] = target: T3, Human CLEC12A expressed on cells …; test: cell-based or functional assay; remark: listed apart in the source
[5] = target: B1; test: flow cytometry (gMFI) on CLEC12A+ PL-21 AML cells
[6] = target: B1; test: flow cytometry, hCLEC12A+ Ba/F3
[7] = target: T4, recombinant human CLEC12A-His (human, UniProt Q5QGZ9 65-265); test: SPR 37C, average
T4 construct: also called hCLEC12A-His; hCLEC12A
T4 sequence: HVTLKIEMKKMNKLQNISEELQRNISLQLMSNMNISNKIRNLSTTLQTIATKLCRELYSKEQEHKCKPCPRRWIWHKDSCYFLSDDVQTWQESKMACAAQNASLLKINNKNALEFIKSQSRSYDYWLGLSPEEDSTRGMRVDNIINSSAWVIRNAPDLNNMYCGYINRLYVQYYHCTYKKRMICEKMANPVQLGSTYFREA

[8] = target: T4, recombinant human CLEC12A-His; test: SPR screening, semi-purified
Experimental: Binding affinities of the 18 semi-purified TriNKETs for hCLEC12A were assessed by SPR in screening.

[9] = target: T4, recombinant human CLEC12A-His; test: SPR, CLEC12A binding
[10] = target: T4, recombinant human CLEC12A-His; test: SPR 37C
[11] = target: T4, recombinant human CLEC12A-His; test: flow cytometry of yeast-displayed scFv; x axis PE-A binding of Clec12a-his, y axis FITC-A scFv expression; CLEC12A-His concentration not printed on the sheet

B1: binds (AB0300).

B2: AB0237-Dead-2D (other)
chain: QLQLQESGPGLVKPSETLSLTCTVSGFSLTNYGLHWIRQPPGKCLEWIGVIWSGGKTDYNPSLKSRVTISKDTSKNQFSLKLSSVQAADTAVYYCAKYDYDDSLDYWGQGTLVTVSSGGGGSGGGGSGGGGSGGGGSDIQMTQSPSSLSASVGDRVTITCHASQNINFWLSWYQQKPGKAPKLLIYEASNLHTGVPSRFSGSGSGTRFTLTISSLQPEDIATYYCQQSHSYPLTFGCGTKLEIKGSDKTHTCPPCPAPELLGGPSVFLFPPKPKDTLMISRTPEVTCVVVDVSHEDPEVKFNWYVDGVEVHNAKTKPREEQYNSTYRVVSVLTVLHQDWLNGKEYKCKVSNKALPAPIEKTISKAKGQPREPRVYTLPPCRDELTKNQVSLTCLVKGFYPSDIAVEWESNGQPENNYKTTPPVLVSDGSFTLYSKLTVDKSRWQQGNVFSCSVMHEALHNHYTQKSLSLSPG
heavy: EVQLVESGGGLVKPGGSLRLSCAASGFTFSSYSMNWVRQAPGKGLEWVSSISSSSSYIYYADSVKGRFTISRDNAKNSLYLQMNSLRAEDTAVYYCARGAPIGAAAGWFDPWGQGTLVTVSSASTKGPSVFPLAPSSKSTSGGTAALGCLVKDYFPEPVTVSWNSGALTSGVHTFPAVLQSSGLYSLSSVVTVPSSSLGTQTYICNVNHKPSNTKVDKKVEPKSCDKTHTCPPCPAPELLGGPSVFLFPPKPKDTLMISRTPEVTCVVVDVSHEDPEVKFNWYVDGVEVHNAKTKPREEQYNSTYRVVSVLTVLHQDWLNGKEYKCKVSNKALPAPIEKTISKAKGQPREPQVCTLPPSRDELTENQVSLTCLVKGFYPSDIAVEWESNGQPENNYKTTPPVLDSDGSFFLYSWLTVDKSRWQQGNVFSCSVMHEALHNHYTQKSLSLSPG
light: DIQMTQSPSTLSASVGDRVTITCRASNSISSWLAWYQQKPGKAPKLLIYEASSTKSGVPSRFSGSGSGTEFTLTISSLQPDDFATYYCQQYDDLPTFGGGTKVEIKRTVAAPSVFIFPPSDEQLKSGTASVVCLLNNFYPREAKVQWKVDNALQSGNSQESVTEQDSKDSTYSLSSTLTLSKADYEKHKVYACEVTHQGLSSPVTKSFNRGEC
B2 was tested, and the “EC50 nM, KHYG-1-CD16aV-mediated lysis of HL-60” value [1] was 2.5 nM.

B3: AB0192 TriNKET (bispecific antibody, human IgG1, kappa)
chain: EVQLVESGGGVVQPGGSLRLSCAASGFTFNAFGMHWVRQAPGKCLEWVAFISSGSTSIYYANTVKGRFTISRDNSKNTLYLQMNSLRAEDTAVYYCARDGYPTGGAMDYWGQGTSVTVSSGGGGSGGGGSGGGGSGGGGSDIQMTQSPSSLSASVGDRVTITCKASQDIYNYLSWFQQKPGKAPKPLIYRANILVSGVPSRFSGSGSGQDYTFTISSLQPEDIATYYCLQFDAFPFTFGCGTKLEIKGSDKTHTCPPCPAPELLGGPSVFLFPPKPKDTLMISRTPEVTCVVVDVSHEDPEVKFNWYVDGVEVHNAKTKPREEQYNSTYRVVSVLTVLHQDWLNGKEYKCKVSNKALPAPIEKTISKAKGQPREPRVYTLPPCRDELTKNQVSLTCLVKGFYPSDIAVEWESNGQPENNYKTTPPVLVSDGSFTLYSKLTVDKSRWQQGNVFSCSVMHEALHNHYTQKSLSLSPG
heavy: EVQLVESGGGLVKPGGSLRLSCAASGFTFSSYSMNWVRQAPGKGLEWVSSISSSSSYIYYADSVKGRFTISRDNAKNSLYLQMNSLRAEDTAVYYCARGAPIGAAAGWFDPWGQGTLVTVSSASTKGPSVFPLAPSSKSTSGGTAALGCLVKDYFPEPVTVSWNSGALTSGVHTFPAVLQSSGLYSLSSVVTVPSSSLGTQTYICNVNHKPSNTKVDKKVEPKSCDKTHTCPPCPAPELLGGPSVFLFPPKPKDTLMISRTPEVTCVVVDVSHEDPEVKFNWYVDGVEVHNAKTKPREEQYNSTYRVVSVLTVLHQDWLNGKEYKCKVSNKALPAPIEKTISKAKGQPREPQVCTLPPSRDELTENQVSLTCLVKGFYPSDIAVEWESNGQPENNYKTTPPVLDSDGSFFLYSWLTVDKSRWQQGNVFSCSVMHEALHNHYTQKSLSLSPG
light: DIQMTQSPSSVSASVGDRVTITCRASQGISSWLAWYQQKPGKAPKLLIYAASSLQSGVPSRFSGSGSGTDFTLTISSLQPEDFATYYCQQGVSFPRTFGGGTKVEIKRTVAAPSVFIFPPSDEQLKSGTASVVCLLNNFYPREAKVQWKVDNALQSGNSQESVTEQDSKDSTYSLSSTLTLSKADYEKHKVYACEVTHQGLSSPVTKSFNRGEC
In the case of B3, the “% Max, ADCP activity of M0 macrophages against PL21 cells” value [2] is reported as 15%, the “EC50, ADCP activity of M0 macrophages against PL21 cells” value [2] is reported as 0.03 nM and the “EC50, rested NK cell lysis of PL21 cells (mean of six donors)” value [3] is reported as 0.61 nM. For the same binder, the “EC50, rested NK cells lysis of HL60 cells (mean of four donors)” value [4] was 0.3 nM.

B4: F3'-1295 TriNKET (other)
chain: QLQLQESGPGLVKPSETLSLTCTVSGFSLTNYGLHWIRQPPGKCLEWIGVIWSGGKTDYNPSLKSRVTISKDTSKNQFSLKLSSVQAADTAVYYCAKYDYDDSLDYWGQGTLVTVSSGGGGSGGGGSGGGGSGGGGSDIQMTQSPSSLSASVGDRVTITCHASQNINFWLSWYQQKPGKIPKLLIYEASNLHTGVPSRFSGSGSGTRFTLTISSLQPEDIATYYCQQSHSYPLTFGCGTKLEIKGSDKTHTCPPCPAPELLGGPSVFLFPPKPKDTLMISRTPEVTCVVVDVSHEDPEVKFNWYVDGVEVHNAKTKPREEQYNSTYRVVSVLTVLHQDWLNGKEYKCKVSNKALPAPIEKTISKAKGQPREPRVYTLPPCRDELTKNQVSLTCLVKGFYPSDIAVEWESNGQPENNYKTTPPVLVSDGSFTLYSKLTVDKSRWQQGNVFSCSVMHEALHNHYTQKSLSLSPG
heavy: EVQLVESGGGLVKPGGSLRLSCAASGFTFSSYSMNWVRQAPGKGLEWVSSISSSSSYIYYADSVKGRFTISRDNAKNSLYLQMNSLRAEDTAVYYCARGAPIGAAAGWFDPWGQGTLVTVSSASTKGPSVFPLAPSSKSTSGGTAALGCLVKDYFPEPVTVSWNSGALTSGVHTFPAVLQSSGLYSLSSVVTVPSSSLGTQTYICNVNHKPSNTKVDKKVEPKSCDKTHTCPPCPAPELLGGPSVFLFPPKPKDTLMISRTPEVTCVVVDVSHEDPEVKFNWYVDGVEVHNAKTKPREEQYNSTYRVVSVLTVLHQDWLNGKEYKCKVSNKALPAPIEKTISKAKGQPREPQVCTLPPSRDELTENQVSLTCLVKGFYPSDIAVEWESNGQPENNYKTTPPVLDSDGSFFLYSWLTVDKSRWQQGNVFSCSVMHEALHNHYTQKSLSLSPG
light: DIQMTQSPSSVSASVGDRVTITCRASQGISSWLAWYQQKPGKAPKLLIYAASSLQSGVPSRFSGSGSGTDFTLTISSLQPEDFATYYCQQGVSFPRTFGGGTKVEIKRTVAAPSVFIFPPSDEQLKSGTASVVCLLNNFYPREAKVQWKVDNALQSGNSQESVTEQDSKDSTYSLSSTLTLSKADYEKHKVYACEVTHQGLSSPVTKSFNRGEC
For B4, the EC50 [5] was 11.7 nM, the EC50 [6] was 26.1 nM and the “Max MFI” value [6] was 48000 MFI. For the same binder, the Kd [7] was 1.43 nM, the koff [7] was 0.000594 s⁻¹ and the kon [7] was 415000 M⁻¹ s⁻¹. The Kd [8] was 2.94 nM, the koff [8] was 0.00153 s⁻¹ and the kon [8] was 520000 M⁻¹ s⁻¹. For the same binder, the Kd [9] was 1.2 nM, the Kd [10] was 1.43 nM and 1.42 nM and 1.44 nM and the koff [10] was 0.000587 s⁻¹ and 0.000589 s⁻¹ and 0.000605 s⁻¹ and 0.000596 s⁻¹. The kon [10] was 411000 M⁻¹ s⁻¹ and 415000 M⁻¹ s⁻¹ and 419000 M⁻¹ s⁻¹ and 416000 M⁻¹ s⁻¹.

B5: scFv-1602 displayed on yeast (scFv)
scFv: QLQLQESGPGLVKPSETLSLTCTVSGFSLTNYGLHWIRQPPGKCLEWIGVIWSGGKTDYNPSLKSRVTISKDTSKNQFSLKLSSVQAADTAVYYCAKYDYDDSLDYWGQGTLVTVSSGGGGSGGGGSGGGGSGGGGSDIQMTQSPSSLSASVGDRVTITCHASQNINFWLSWYQQKPGKAPKLLIYEASNLHTGVPSRFSGSGSGTRFTLTISSLQPEDIATYYCQQSHSYPLTFGCGTKLEIK
B5: binds [11].
